In patent CN114592010A:

Molecular target: NK细胞自身的IL-15受体(IL15Rβγ) (UniProt P14784)
Assay: cell-based or functional assay

UniProt P14784, sequence (P14784 27-551 limits assumed, chain 1 of 2): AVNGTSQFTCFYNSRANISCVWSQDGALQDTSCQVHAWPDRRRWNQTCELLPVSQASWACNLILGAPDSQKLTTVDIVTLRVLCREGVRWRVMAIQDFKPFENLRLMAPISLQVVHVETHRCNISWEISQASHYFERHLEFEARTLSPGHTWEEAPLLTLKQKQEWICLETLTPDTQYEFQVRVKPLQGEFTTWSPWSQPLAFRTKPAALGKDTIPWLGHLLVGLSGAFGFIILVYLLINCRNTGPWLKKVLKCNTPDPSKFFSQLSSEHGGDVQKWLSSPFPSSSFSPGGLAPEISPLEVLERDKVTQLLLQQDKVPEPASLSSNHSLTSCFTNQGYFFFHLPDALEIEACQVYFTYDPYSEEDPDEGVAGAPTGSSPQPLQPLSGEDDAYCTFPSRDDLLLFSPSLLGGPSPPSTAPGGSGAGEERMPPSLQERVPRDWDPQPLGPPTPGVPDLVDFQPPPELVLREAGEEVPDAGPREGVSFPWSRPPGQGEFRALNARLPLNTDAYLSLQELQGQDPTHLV
UniProt P14784, sequence (P31785 23-369 limits assumed, chain 2 of 2, further chain): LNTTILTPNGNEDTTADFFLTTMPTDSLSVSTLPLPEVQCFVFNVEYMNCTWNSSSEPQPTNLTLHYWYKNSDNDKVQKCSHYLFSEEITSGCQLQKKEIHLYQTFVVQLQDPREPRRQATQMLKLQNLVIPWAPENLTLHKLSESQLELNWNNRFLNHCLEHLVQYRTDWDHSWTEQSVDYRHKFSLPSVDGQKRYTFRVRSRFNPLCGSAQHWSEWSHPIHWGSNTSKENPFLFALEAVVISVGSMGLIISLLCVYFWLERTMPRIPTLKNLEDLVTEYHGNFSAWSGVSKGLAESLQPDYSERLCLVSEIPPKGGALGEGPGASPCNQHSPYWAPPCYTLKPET

膜结合型IL-15 (IL-15-CD8 hinge-CD8 TM融合蛋白) (ligand)
增殖效果 (CCK8), NKMB cells = 实施例3 NK-CAR(NK-CAR)-MbIL-15, 1d (relative to 0d = 1): 1.66 | 增殖效果 (CCK8), NKMB cells = 实施例3 NK-CAR(NK-CAR)-MbIL-15, 2d (relative to 0d = 1): 2.37 | 增殖效果 (CCK8), NKMB cells = 实施例3 NK-CAR(NK-CAR)-MbIL-15, 3d (relative to 0d = 1): 2.83 | 增殖效果 (CCK8), NKMB cells = 实施例3 NK-CAR(NK-CAR)-MbIL-15, 4d (relative to 0d = 1): 4.12 | 增殖效果 (CCK8), TMB cells = 实施例4 NK-CAR(T-CAR)-MbIL-15, 1d (relative to 0d = 1): 1.67 | 增殖效果 (CCK8), TMB cells = 实施例4 NK-CAR(T-CAR)-MbIL-15, 2d (relative to 0d = 1): 2.7 | 增殖效果 (CCK8), TMB cells = 实施例4 NK-CAR(T-CAR)-MbIL-15, 3d (relative to 0d = 1): 3.63 | 增殖效果 (CCK8), TMB cells = 实施例4 NK-CAR(T-CAR)-MbIL-15, 4d (relative to 0d = 1): 7.77
